Publication PMC4939007, “The GH51 α-L-arabinofuranosidase from Paenibacillus sp. THS1 is multifunctional, hydrolyzing main-chain and side-chain glycosidic bonds in heteroxylans” (Biotechnology for Biofuels, 2016)

Legend:
Assay in all cases: purified protein
[1] = tested on: O=[N+]([O-])c1ccc(O[C@@H]2OC[C@@H](O)[C@H](O)[C@H]2O)cc1; conditions: 50 mM sodium phosphate pH 6.5, 1 mg/mL BSA, 60 °C, 0–40 mM substrate, authors' caution: maximum substrate below 2 x KM
[2] = tested on: O=[N+]([O-])c1ccc(O[C@@H]2O[C@@H](CO)[C@H](O)[C@H]2O)cc1; conditions: 50 mM sodium phosphate pH 6.5, 1 mg/mL BSA, 60 °C, 0–5 mM substrate
[3] = tested on: O=[N+]([O-])c1ccc(O[C@@H]2O[C@@H]([C@H](O)CO)[C@H](O)[C@H]2O)cc1; conditions: 50 mM sodium phosphate pH 6.5, 1 mg/mL BSA, 60 °C, 0–14 mM substrate, authors' caution: maximum substrate below 2 x KM

THSAbf (Paenibacillus sp. HanTHS1) was tested, and the Km [1] was 23.8 ± 4.1 mM, the kcat [1] was 10.6 ± 0.9 s⁻¹ and the kcat/Km [1] was 440 M⁻¹ s⁻¹. It also gave a Km [2] of 0.31 ± 0.1 mM, a kcat [2] of 328 ± 23 s⁻¹ and a kcat/Km [2] of 1.05e+06 M⁻¹ s⁻¹. It also gave a Km [3] of 8.6 ± 0.9 mM, a kcat [3] of 327 ± 20 s⁻¹ and a kcat/Km [3] of 38000 M⁻¹ s⁻¹.
